Test results published in the nanobody polyreactivity screen of Harvey et al. (2022).

experiment: yeast display, Sf9 membrane polyspecificity reagent, FACS + sequencing; frameworks hold sequencing errors
How it was run: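 Galactose induction of a Saccharomyces cerevisiae BJ5465 synthetic nanobody display library ran 36–48 hours. The cells were then stained for 1 hour at 4 °C with 10% biotinylated, detergent-solubilized Sf9 membrane reagent, pulled down on streptavidin microbeads and FACS-sorted into low and high (top ~1%) gates on expression and reagent-binding fluorescence. Labels for polyreactivity follow the gate of origin.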

Row | Sequence | polyreactivity (PSR sort gate)
1 | QVQLVESGGGLVQAGGSLRLSCAASGRTYRQNAMGWYRQAPGKEGELVAAISSSGTNTHYADSVKGRFTISRDNAKNTVYLQMTSLKPEDTAVYYCAADSWGARRKQYHENGYWGQGSQVTVSS | high polyreactivity
2 | QVQLVESGGGLVQAGGSLRLSCAASGRTYSNAMGWYRQAPGKERELVAAITWSGGRTYYADSVKGRFTISRDNAKNTVYLQMNSLKPEDTAVYYCAADSIWWPLWFDYWGQGTQVTVSS | high polyreactivity
3 | QVQLVESGGGLVQAGGSLRLSCAASGRTYTFYARGWYRQAPGKERELVAAITWGGGSTYYADSVKGRFTISRDNAKNTVYLQMNSLKPEDTAVYYCAAEWYEPVGSRWYSPYYYWGQGTQVTVSS | high polyreactivity
4 | QVQLVESGGGLVQAGGSLRLSCAASGSARYAMGWYRQAPGKERELVAAISRRGGSTFYADSVKGRFTISRDNAMNTVYLQMNSLKPEDTAVYYCAADGRISYDYWGQGTQVTVSS | low polyreactivity
5 | QVQLVESGGGLVQAGGSLRLSCAASGSFFASYSMGWYRQAPAKERELVAAITYSGSRTYYADSVKGRFTISRDNAKNTVYLQMNSLKPEDSAVYYCNADYYWYPYEDDYWGQGTQVTVSS | low polyreactivity
6 | QVQLVESGGGLVQAGGSLRLSCAASGSIAGNAMGWYRQAPGKERELVAAITFRGSGTYYADSVKGRFTISRDNAKNTVYLQMNSLKPEDTAVDYCNAYRRGLSVYGYWGQGTQVTVSS | high polyreactivity
7 | QVQLVESGGGLVQAGGSLRLSCAASGSIAMGWYRQAPGKERELVATISSSGGSTYYADSVKGRFTISRDNAKNTVYLQMNSLKPEDTAVYYCNTPQYLGPLYSEFDYWGQGTQVTVSS | low polyreactivity
8 | QVQLVESGGGLVQAGGSLRLSCAASGSIAMGWYRQAPGKERELVATISSSGGSTYYADSVKGRFTISRDNAKNTVYLQMNSLKPEDTAVYYCNTQAVYGGGEGGYDYWGQGTQLTVSS | low polyreactivity
9 | QVQLVESGGGLVQAGGSLRLSCAASGSICERYAMGWYRQAPGKERELVAAISWRGTRTFYADSVKGRFTISRDNAKNTVYLQMNSLKPEDTAVYYCAADSRPPKYDYWGQGTQVTVSS | high polyreactivity
10 | QVQLVESGGGLVQAGGSLRLSCAASGSICISYAMGWYRPAPGKERELVAAINYSGGSTYYADSVKGRFTISRDNAKNTVYLQMNSLKPDDTAVYYCAKRSTYRYYGYKLRDYWGQGTQVTVSS | low polyreactivity
11 | QVQLVESGGGLVQAGGSLRLSCAASGSICRLYAMGWYRPARGKEREFVAGITRRTGSTYYADSVKWRFTISRDNAKNTVYLQMTSLKPEETAVYYCAKRDARATPFGYWGLGTQVTVSS | high polyreactivity
12 | QVQLVESGGGLVQAGGSLRLSCAASGSICSLYAKGWYRQEPGKERELVAAISSSGTSTYYADSVKGRFTISRDNSKNTVYLQMNSLKLEDTAVYYCNAYRRRATYNGDYWGQGTQLTVSS | high polyreactivity
13 | QVQLVESGGGLVQAGGSLRLSCAASGSICSSYAMGWYRQAPGKERELVAAISGSGGSTFYADSVKGRFTISRDNAKNTVYLQMNSLKPEDTAVYYCAARYYWYGRAGKKHASYYYWGQGTQVTVSS | high polyreactivity
14 | QVQLVESGGGLVQAGGSLRLSCAASGSIDSKYTMGWYRQAPGKERELVAAIRGSGVRTYYADSVKGRFTISRDNAKNTVYLQMNSLKPEDTAVYYCAKVVYRGKVALWISSTAGSDYWGQGTQVTVSS | low polyreactivity
15 | QVQLVESGGGLVQAGGSLRLSCAASGSIFAANAMGWYRQAPGKERELVADITRGDGTNYADSVKGRFTISRDNAKNTVYLQMNSLKPEDTAVYYCAAEPSQRYPWSGYDYWGQGTQVTVSS | low polyreactivity
16 | QVQLVESGGGLVQAGGSLRLSCAASGSIFAANAMGWYRQATGKESELVAAISWSGGSTYADSVKGRFTISRDNAKNTVYLQMNSLKPEDTAVYYCNAFVYVGTGRGYDTLDYWGQGTQVTVSS | low polyreactivity

Row | Sequence | polyreactivity (PSR sort gate)
17 | QVQLVESGGGLVQAGGSLRLSCAASGSIFAFNAMGWYRQAPGKERELVAAITRSGGRTFYADSVKGRFTISRDNAKNTVYLQMNSLKPEDTAVYYCAASEWRFSSYGGVKYYVEYDYWGQGTQVTVSS | high polyreactivity
18 | QVQLVESGGGLVQAGGSLRLSCAASGSIFAFNAMGWYRQAPGKERELVAAITSGGNTYYADSVKGRFTISRDNAKNTVYLQMNSLKPEDTAVYYWATVFSVQGWYFGMNYWGQGTQVTVSS | low polyreactivity
19 | QVQLVESGGGLVQAGGSLRLSCAASGSIFAFNAMGWYRQAPGKERELVAGITISDSTNYADSVKGRFTISRDNAKNTVYLQMNSLKPEDTAVYYCNADYEQYVYWYWFIKYDYWGQGTQVTVSS | low polyreactivity
20 | QVQLVESGGGLVQAGGSLRLSCAASGSIFAGNAMGWYRQAPGKERELVAAITFSAGRTSYADSVKGRFTISRDNAKNTVYLQMNSLKPEDTAVYYCAARYRTDYYPEYDYWGQGTQVTVSS | low polyreactivity
21 | QVQLVESGGGLVQAGGSLRLSCAASGSIFAGNAMGWYRQPPGKERELVASISWRGGSTYYADSVKGRFTISRDNAKKTVYLQMNSLKPEDTAVYYCNADLVLFPLTWPYYYWGQGTQVTVSS | low polyreactivity
22 | QVQLVESGGGLVQAGGSLRLSCAASGSIFAGYAMGWYRQAPGKERELVAAISWSGGRTYYADSVKGRFTISRDNAKNTVYLQMNSLKPEDTAVYYCAALYIYRTYAALSRYDYWGQGTQVTVSS | high polyreactivity
23 | QVQLVESGGGLVQAGGSLRLSCAASGSIFALNVMGWYRQAPGKEREFVAAISVRSGSTYYADSVKGRFTISRDNAKNTVYLQMNSLKPEDTAVYYCAARTSRFWRGGGLDYWGQGTQVTVSS | high polyreactivity
24 | QVQLVESGGGLVQAGGSLRLSCAASGSIFAPNAMGWYRHAPGKERELVAAISRSGGRTYYADSVKGRFTISRDNAKNTVYLQMNSLKPEDTAVYYCAADYKHQRTYGSWGQGTQVTVSS | high polyreactivity
25 | QVQLVESGGGLVQAGGSLRLSCAASGSIFAPNAMGWYRQAPRKEREFVAGITQSGTSTYADSVKGRFTISRDNAKNTVYLQMNSLKPEDTAVYYCAAEYYYGYWYGYIISYDYWGQGTQVTVSS | high polyreactivity
26 | QVQLVESGGGLVQAGGSLRLSCAASGSIFARYAMGWYRQAPGKERELVAAITSGGITNYADSVKGRFTISRDNAKNTVYLQKNSLKPEDTAVYYCAARRSGRVRYDYWGQGTQVTVSS | high polyreactivity
27 | QVQLVESGGGLVQAGGSLRLSCAASGSIFARYAMGWYRQAPGKERELVAAITYSGGSTYYADSVKGRFTISRYNAKNTVYLQMNSLKPEDTAVYYCALRSGYGRWYPYDYWGQGTQVTVSS | high polyreactivity
28 | QVQLVESGGGLVQAGGSLRLSCAASGSIFASNAMGWYRQAPGKEREFVAAIYWSGTRTYYADSVKGRFTISRDNAKNTVYLQLKSLKPEDTAVYYCAALTVLRNDYWGQGTQVSVSS | low polyreactivity
29 | QVQLVESGGGLVQAGGSLRLSCAASGSIFASNAMGWYRQAPGKERELVAAIDDDGSTDYADSVKGRFTISRDNAKNTVYLQMNSLKPEDTAVYYCAVVTFWWGWTKYRGGFYWGQGTQVTVSS | low polyreactivity
30 | QVQLVESGGGLVQAGGSLRLSCAASGSIFASNAMGWYRQAPGKQWELVAAINSGTRTKYADSVKGRFTISRDNAKNTVYLQMNSRKPEDTAVYYCAARFKGERGPAHYYWGQGTQVTVSS | high polyreactivity
31 | QVQLVESGGGLVQAGGSLRLSCAASGSIFATNAMGWYRQAPGKERELGASSSSGGGSTYYADSVKGRFTISRDNAKNTVYLQLNSLKPEDTADSYCARRIGPGSRPSWLETWRYPYDYWGQGTQVTVSS | low polyreactivity
